From patent publication US20230277613A1, “Polysaccharide-Rich Bombax Costatum Flower Extract” (priority 2020, published 2023)
Marks after values point to notes of the source that are not given here.

Test system: normal human keratinocyte monolayer (NHK)
Assay: Scratch assay, migration of NHK
Format: cell-based
Details: EGF 100 ng/ml; 5 hours
Experimental: Scratch Assay: a lesion was performed on a mat of normal human keratinocyte monolayer (NHK) at confluence before treatment with BCP extract at 0.01% and 0.05% dry matter or with EGF (Epidermal Growth Factor) at 100 ng/ml. A photo was taken at the start of treatment and after 5 hours of incubation in order to measure the rate of progression of the HCNs within the lesion. The percentage of coverage was evaluated under the different conditions by image analysis. The significance of the results was assessed by Student's t test.

B1: EGF: Epidermal Growth Factor, reference in the scratch assay (protein, UniProt P01133 23-1207, looked up)
Pro-epidermal growth factor: PQHWSCPEGTLAGNGNSTCVGPAPFLIFSHGNSIFRIDTEGTNYEQLVVDAGVSVIMDFHYNEKRIYWVDLERQLLQRVFLNGSRQERVCNIEKNVSGMAINWINEEVIWSNQQEGIITVTDMKGNNSHILLSALKYPANVAVDPVERFIFWSSEVAGSLYRADLDGVGVKALLETSEKITAVSLDVLDKRLFWIQYNREGSNSLICSCDYDGGSVHISKHPTQHNLFAMSLFGDRIFYSTWKMKTIWIANKHTGKDMVRINLHSSFVPLGELKVVHPLAQPKAEDDTWEPEQKLCKLRKGNCSSTVCGQDLQSHLCMCAEGYALSRDRKYCEDVNECAFWNHGCTLGCKNTPGSYYCTCPVGFVLLPDGKRCHQLVSCPRNVSECSHDCVLTSEGPLCFCPEGSVLERDGKTCSGCSSPDNGGCSQLCVPLSPVSWECDCFPGYDLQLDEKSCAASGPQPFLLFANSQDIRHMHFDGTDYGTLLSQQMGMVYALDHDPVENKIYFAHTALKWIERANMDGSQRERLIEEGVDVPEGLAVDWIGRRFYWTDRGKSLIGRSDLNGKRSKIITKENISQPRGIAVHPMAKRLFWTDTGINPRIESSSLQGLGRLVIASSDLIWPSGITIDFLTDKLYWCDAKQSVIEMANLDGSKRRRLTQNDVGHPFAVAVFEDYVWFSDWAMPSVMRVNKRTGKDRVRLQGSMLKPSSLVVVHPLAKPGADPCLYQNGGCEHICKKRLGTAWCSCREGFMKASDGKTCLALDGHQLLAGGEVDLKNQVTPLDILSKTRVSEDNITESQHMLVAEIMVSDQDDCAPVGCSMYARCISEGEDATCQCLKGFAGDGKLCSDIDECEMGVPVCPPASSKCINTEGGYVCRCSEGYQGDGIHCLDIDECQLGEHSCGENASCTNTEGGYTCMCAGRLSEPGLICPDSTPPPHLREDDHHYSVRNSDSECPLSHDGYCLHDGVCMYIEALDKYACNCVVGYIGERCQYRDLKWWELRHAGHGQQQKVIVVAVCVVVLVMLLLLSLWGAHYYRTQKLLSKNPKNPYEESSRDVRSRRPADTEDGMSSCPQPWFVVIKEHQDLKNGGQPVAGEDGQAADGSMQPTSWRQEPQLCGMGTEQGCWIPVSSDKGSCPQVMERSFHMPSYGTQTLEGGVEKPHSLLSANPLWQQRALDPPHQMELTQ
modifications: Pro-epidermal growth factor
- Evolution compared to the control: +85% **
